What was measured:
full length Ku80 = biological target: T1, full length Ku80 (Homo sapiens, UniProt P13010); assay: GST pull-down of Ku80 from biotinylated bacterial extract by GST-Ku70 derivatives; format: binding; details: GST-fusion on glutathione agarose beads, biotinylated bacterial extract containing Ku80, seven NETN washes, streptavidin-HRP blot
T1 construct: incubated with biotinylated bacterial cell extracts containing full length Ku80; made in house; host or cells: E. coli BL21 pLysS
Description: (§1) Full length Ku70 and Ku80 were cloned in frame with the glutathione binding domain of human glutathione S-transferase (GST) by sub-cloning into pGEX2TKP (a derivative of […] by Pharmacia). Deletion mutants of Ku70 and Ku80 were cloned by Pfu polymerase amplification and cloning into pGEX2TKP. Expression from all pGEX2TKP constructs was carried out in either DH5α or DS941 strains of E. coli. Bacterial cell extracts were produced by sonication in Phosphate-buffered saline (PBS; 138 mM NaCl, 3 mM KCl, 10 mM Phosphate buffer pH 7.4) containing 1% Triton-X100 (Sigma) and protease inhibitor tablets (Boehringer). GST-fusion proteins were purified by passing bacterial lysates over Glutathione Agarose beads (Pharmacia) and washing extensively in PBS containing 1% Triton-X100 and then in PBS alone. The beads/proteins were stored at −80° C. prior to use.
Ku70 and Ku80 were cloned into pET30a (Novagen) to generate a N-terminal hexa-Histidine tag and expressed at low levels in E. coli (BL21 pLysS). […]
(§2) In a complementary approach to the yeast 2-hybrid technique, the inventors used a “pull-down” assay to detect interactions between recombinant deletion derivatives of the two Ku subunits. […] Interacting proteins were detected by probing these western blots with streptavidin that was conjugated to horse radish peroxidase (HRP). […]

full length Ku70 = biological target: T2, full length Ku70 (Homo sapiens, UniProt P12956); assay: GST pull-down of Ku70 from biotinylated bacterial extract by GST-Ku80 derivatives; format: binding; details: GST-fusion on glutathione agarose beads; biotinylated bacterial extract containing Ku70; seven NETN washes; streptavidin-HRP blot
T2 construct: incubated with biotinylated bacterial cell extracts containing full length Ku70; made in house; host or cells: E. coli BL21 pLysS
T2 sequence (P12956 whole entry, the tested form may be a part): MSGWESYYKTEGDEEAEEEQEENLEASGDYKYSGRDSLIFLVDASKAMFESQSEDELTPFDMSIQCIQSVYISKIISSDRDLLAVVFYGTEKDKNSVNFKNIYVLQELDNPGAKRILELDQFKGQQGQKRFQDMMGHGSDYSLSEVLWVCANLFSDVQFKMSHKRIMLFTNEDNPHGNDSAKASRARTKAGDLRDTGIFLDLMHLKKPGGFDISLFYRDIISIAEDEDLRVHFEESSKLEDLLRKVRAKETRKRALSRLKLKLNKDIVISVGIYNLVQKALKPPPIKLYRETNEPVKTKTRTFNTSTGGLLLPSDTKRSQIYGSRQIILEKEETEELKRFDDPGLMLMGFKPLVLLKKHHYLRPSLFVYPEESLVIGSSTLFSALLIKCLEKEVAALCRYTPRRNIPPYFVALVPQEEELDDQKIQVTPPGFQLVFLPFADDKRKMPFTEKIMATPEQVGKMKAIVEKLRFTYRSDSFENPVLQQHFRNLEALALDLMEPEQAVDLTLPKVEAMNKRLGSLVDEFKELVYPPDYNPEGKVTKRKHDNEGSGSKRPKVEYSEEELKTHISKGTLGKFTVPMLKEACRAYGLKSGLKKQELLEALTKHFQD
Description: as §1, with “use. […]” for “use.”
as §2
The inventors tested a range of Ku80 deletion derivatives expressed as GST-fusions for their ability to interact with full-length Ku70. […]

T1 sequence (P13010 whole entry, the tested form may be a part): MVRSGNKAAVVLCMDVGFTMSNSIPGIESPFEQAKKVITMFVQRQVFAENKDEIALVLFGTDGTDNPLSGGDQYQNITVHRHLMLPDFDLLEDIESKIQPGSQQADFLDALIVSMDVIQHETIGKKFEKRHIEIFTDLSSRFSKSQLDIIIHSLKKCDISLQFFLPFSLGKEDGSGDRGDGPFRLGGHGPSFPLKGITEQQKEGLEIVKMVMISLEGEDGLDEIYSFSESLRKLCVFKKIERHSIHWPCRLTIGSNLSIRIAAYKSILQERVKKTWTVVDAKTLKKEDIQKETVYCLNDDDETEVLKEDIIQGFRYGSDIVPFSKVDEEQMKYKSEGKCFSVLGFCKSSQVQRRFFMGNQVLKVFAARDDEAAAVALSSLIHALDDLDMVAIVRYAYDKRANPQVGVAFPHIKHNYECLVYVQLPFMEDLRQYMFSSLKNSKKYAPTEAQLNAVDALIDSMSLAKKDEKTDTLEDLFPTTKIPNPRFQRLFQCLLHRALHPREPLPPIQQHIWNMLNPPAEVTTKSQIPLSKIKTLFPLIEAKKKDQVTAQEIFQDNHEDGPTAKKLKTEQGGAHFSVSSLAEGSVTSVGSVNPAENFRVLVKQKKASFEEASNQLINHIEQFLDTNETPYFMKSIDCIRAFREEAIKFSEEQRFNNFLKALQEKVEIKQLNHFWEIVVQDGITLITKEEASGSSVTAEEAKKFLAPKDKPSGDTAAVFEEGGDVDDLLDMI

Substance: GST-Ku70: full length human Ku70 fused to glutathione S-transferase, expressed in E. coli
- interaction with full-length Ku80 (full length Ku80): only a single species is retained efficiently on the beads
- interaction with full-length Ku80 (full length Ku80; listed as Full-length Ku70): binds to Ku80 efficiently

Substance: GST-Ku80: full length human Ku80 fused to glutathione S-transferase, expressed in E. coli
- interaction with full-length Ku70 (full length Ku70): only a single species is retained efficiently on the beads

From patent US6753151B1, “Interactions of Ku polypeptides and applications thereof” (Kudos Pharmaceuticals Limited, priority 1999, dated 2004)
